Test results: PMC3568928 (Journal of molecular biology, 2011)
Where “and” joins values, the source holds several entries; their conditions need not be identical. Equal values may be shown once.

T1: htt^NTQ15K2 (Phe→Trp replacement at position 17 (stands in the printed letters))
T1 peptide: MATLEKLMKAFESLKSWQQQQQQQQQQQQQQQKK

T2: htt^NTQ25K2 (Phe→Trp replacement at position 17 (stands in the printed letters))
T2 peptide: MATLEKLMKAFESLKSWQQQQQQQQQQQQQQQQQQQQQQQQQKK

B1: htt^NTQ10K2 (peptide)
peptide: MATLEKLMKAFESLKSFQQQQQQQQQQKK
B2: htt^NTQ37P10K2 (peptide)
peptide: MATLEKLMKAFESLKSWQQQQQQQQQQQQQQQQQQQQQQQQQQQQQQQQQQQQQPPPPPPPPPPKK

Legend:
AUC = target: the molecule itself; experiment: AUC
htt^NTQ10K2 = target: B1; experiment: seeded elongation, HPLC sedimentation assay
htt^NTQ15K2 = target: T1, htt^NTQ15K2; experiment: seeded elongation, HPLC sedimentation assay
htt^NTQ25K2 = target: T2, htt^NTQ25K2; experiment: seeded elongation, HPLC sedimentation assay

B1
stoichiometry N (AUC): ~4 and ~8 and ~12

B2
pseudo-first-order rate constant of seeded elongation (htt^NTQ10K2): 0.249 h⁻¹
pseudo-first-order rate constant of seeded elongation (htt^NTQ15K2): 0.236 h⁻¹
pseudo-first-order rate constant of seeded elongation (htt^NTQ25K2): 0.316 h⁻¹
